Data: article PMC11696893, “Enzymatic synthesis of reactive RNA probes containing squaramate-linked cytidine or adenosine for bioconjugations and cross-linking with lysine-containing peptides and proteins”

Tests used:
[1] = molecular target: T7 RNA polymerase (bacteriophage T7, UniProt P00573 1-883); settings: label: radioactive
[2] = molecular target: JEV NS5 (Japanese encephalitis virus, UniProt P27395 2528-3432); test: EMSA; settings: protein: recombinant; label: radioactive
[3] = molecular target: YFV NS5 (Yellow fever virus, UniProt P03314 2507-3411); test: EMSA; settings: protein: recombinant; label: radioactive
[4] = molecular target: SARS-CoV-2 nucleoprotein (SC_NP) (SARS-CoV-2, UniProt P0DTC9 1-419); test: EMSA; settings: protein: recombinant; chain copies: 2; label: radioactive
[5] = molecular target: HIV reverse transcriptase (HIV-rt) (HIV, UniProt P04585;P04585 588-1147;588-1027); settings: protein: recombinant; copies: 1;1; label: radioactive

GAUACUAAGGGAAUAAAUUGAGAGAGAUAAAUUUAU (ssRNA, C5 = 5-(ethoxysquaramate-linked) cytidine (CESQ)) [36_vRNA_1gCESQ]: no binding [1]; binds [2]; binds [3]. GAUACUAAGGGAAUAAAUUGAGAGAGAUAAAUUUAU (ssRNA, C5 = 5-(ethoxysquaramate-linked) cytidine (CESQ)) [36_vRNA_1gCESQ]: binds [4]; binds [5].
